# From patent US12012619B2, “Methods of use for an NADPH-regeneration system based on a monomeric isocitrate dehydrogenase” (INDUSTRY FOUNDATION OF CHONNAM NATIONAL UNIVERSITY, priority 2021, dated 2024)
# T1: AvIDH (Azotobacter vinelandii, UniProt P16100)
# T1 construct: His-tag (His6, pET24a-derived LEHHHHHH) (C); made in house; host or cells: E. coli BL21 (DE3)
# T1 sequence (P16100 with tags, fused parts or gaps): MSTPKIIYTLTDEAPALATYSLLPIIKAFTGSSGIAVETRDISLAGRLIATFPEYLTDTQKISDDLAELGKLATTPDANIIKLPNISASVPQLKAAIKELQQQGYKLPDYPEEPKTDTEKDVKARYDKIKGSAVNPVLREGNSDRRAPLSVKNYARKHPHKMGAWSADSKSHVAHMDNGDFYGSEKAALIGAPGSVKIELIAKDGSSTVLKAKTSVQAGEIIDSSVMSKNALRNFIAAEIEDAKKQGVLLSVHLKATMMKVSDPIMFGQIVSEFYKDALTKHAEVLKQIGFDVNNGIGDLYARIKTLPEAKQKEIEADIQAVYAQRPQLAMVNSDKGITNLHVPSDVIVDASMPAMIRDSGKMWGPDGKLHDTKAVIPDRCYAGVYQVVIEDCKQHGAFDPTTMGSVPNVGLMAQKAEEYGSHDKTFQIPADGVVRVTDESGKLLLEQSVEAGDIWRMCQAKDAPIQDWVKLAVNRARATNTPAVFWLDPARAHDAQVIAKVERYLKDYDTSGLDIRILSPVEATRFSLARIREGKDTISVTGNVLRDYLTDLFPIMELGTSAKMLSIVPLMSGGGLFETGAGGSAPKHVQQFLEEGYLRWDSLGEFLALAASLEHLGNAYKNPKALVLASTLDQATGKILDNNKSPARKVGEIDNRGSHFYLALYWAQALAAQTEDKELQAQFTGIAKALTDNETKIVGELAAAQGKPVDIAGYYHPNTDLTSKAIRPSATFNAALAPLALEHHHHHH
# T2: CgIDH (Corynebacterium glutamicum, UniProt P50216)
# T2 construct: His-tag (His6, pET24a-derived LEHHHHHH) (C); made in house; host or cells: E. coli BL21 (DE3)
# T2 sequence (P50216 with tags, fused parts or gaps): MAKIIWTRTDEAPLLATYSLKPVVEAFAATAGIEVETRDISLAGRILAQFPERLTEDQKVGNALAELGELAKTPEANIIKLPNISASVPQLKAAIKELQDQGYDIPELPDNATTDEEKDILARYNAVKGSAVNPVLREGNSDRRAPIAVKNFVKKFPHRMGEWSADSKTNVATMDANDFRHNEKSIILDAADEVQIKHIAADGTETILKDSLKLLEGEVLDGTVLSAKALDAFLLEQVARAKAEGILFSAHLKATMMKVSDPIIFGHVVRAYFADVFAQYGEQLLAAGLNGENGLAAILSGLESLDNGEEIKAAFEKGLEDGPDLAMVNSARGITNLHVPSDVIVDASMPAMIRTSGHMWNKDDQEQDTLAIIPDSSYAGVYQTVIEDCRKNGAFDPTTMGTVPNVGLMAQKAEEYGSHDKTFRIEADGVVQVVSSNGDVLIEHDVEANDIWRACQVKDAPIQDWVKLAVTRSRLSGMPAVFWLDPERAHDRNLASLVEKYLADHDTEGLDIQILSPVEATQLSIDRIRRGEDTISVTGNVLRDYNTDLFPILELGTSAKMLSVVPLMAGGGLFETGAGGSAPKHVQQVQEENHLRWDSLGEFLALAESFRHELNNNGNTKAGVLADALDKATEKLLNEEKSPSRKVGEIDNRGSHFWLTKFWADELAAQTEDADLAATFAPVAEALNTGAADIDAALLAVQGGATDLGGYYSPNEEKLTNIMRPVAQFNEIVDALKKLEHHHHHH
# B1: CgIDH: recombinant monomeric isocitrate dehydrogenase from Corynebacterium glutamicum, SEQ ID NO: 1, C-terminal histidine tag (protein)
# chain: T2 sequence (P50216 with tags, fused parts or gaps)
# modifications: C-terminal His tag; CgIDH protein
# B2: AvIDH: recombinant monomeric isocitrate dehydrogenase from Azotobacter vinelandii, SEQ ID NO: 2, C-terminal histidine tag (protein)
# chain: T1 sequence (P16100 with tags, fused parts or gaps)
# modifications: C-terminal His tag; AvIDH protein
# How the values were obtained:
# [1] = target: T1, AvIDH; assay: Enzyme activity inhibitory effect by α-ketoglutarate on AvIDH; format: biochemical; settings: 20 mM α-ketoglutarate added; 5 nM AvIDH
# Procedure: (§1) In order to confirm an enzyme activity inhibitory effect by α-ketoglutarate, which is an enzyme reaction product of the recombinant protein produced in the present invention, a reaction product, in which 5 nM of CgIDH and 5 nM AvIDH were each added to a reaction solution containing 100 mM potassium phosphate buffer (pH 7.4), 0.8 mM manganese sulfate, 40 mM DL-isocitric acid, and 0.5 mM NADP, was prepared. Thereafter, α-ketoglutarate was added for each concentration to proceed the reaction as described in Example 5, and the degree of increase of NADPH was measured. Here, an experimental group to which α-ketoglutarate was not added was used as a control group.
# [2] = target: T2, CgIDH; assay: Enzyme activity inhibitory effect by α-ketoglutarate on CgIDH; format: biochemical; settings: 10 mM α-ketoglutarate added; 5 nM CgIDH
# Procedure: as §1
# [3] = test system: NADPH regeneration; assay: Specific activity analysis of recombinant IDH protein (NADPH increase measured by fluorescence); format: biochemical; settings: 5 nM enzyme; for specific activity: 100 mM potassium phosphate buffer pH 7.4, 0.8 mM MnSO4, 0.8 mM DL-isocitric acid, 0.5 mM NADP+
# Procedure: In order to confirm the degree of NADPH regeneration by the activity of the IDH recombinant protein, CgIDH and AvIDH were each added to a reaction solution containing 100 mM potassium phosphate buffer (pH 7.4), 0.8 mM manganese sulfate (MnSO4), 0.8 mM DL-isocitric acid, and 0.5 mM NADP+ so that the final concentrations were 5 nM, and the degree of increase of NADPH depending on the enzyme activity was measured with a spectrophotometer. When fluorescence was measured using a spectrophotometer, an excitation wavelength was set to 350 nm and an emission wavelength was set to 450 nm, and the measurement results are shown in FIG. 7.
# [4] = target: cytochrome P450 BM3 (Priestia megaterium, UniProt P14779); assay: Coupling reaction with cytochrome P450 BM3, HPLC analysis of hydroxylation product of substrate; format: biochemical, Bacillus megaterium; settings: coupling reaction 5 min; control = NADPH itself added; CgIDH 10 nM or AvIDH 5 nM, 500 nM P450 BM3, 2 mM omeprazole
# cytochrome P450 BM3, sequence (P14779 whole entry): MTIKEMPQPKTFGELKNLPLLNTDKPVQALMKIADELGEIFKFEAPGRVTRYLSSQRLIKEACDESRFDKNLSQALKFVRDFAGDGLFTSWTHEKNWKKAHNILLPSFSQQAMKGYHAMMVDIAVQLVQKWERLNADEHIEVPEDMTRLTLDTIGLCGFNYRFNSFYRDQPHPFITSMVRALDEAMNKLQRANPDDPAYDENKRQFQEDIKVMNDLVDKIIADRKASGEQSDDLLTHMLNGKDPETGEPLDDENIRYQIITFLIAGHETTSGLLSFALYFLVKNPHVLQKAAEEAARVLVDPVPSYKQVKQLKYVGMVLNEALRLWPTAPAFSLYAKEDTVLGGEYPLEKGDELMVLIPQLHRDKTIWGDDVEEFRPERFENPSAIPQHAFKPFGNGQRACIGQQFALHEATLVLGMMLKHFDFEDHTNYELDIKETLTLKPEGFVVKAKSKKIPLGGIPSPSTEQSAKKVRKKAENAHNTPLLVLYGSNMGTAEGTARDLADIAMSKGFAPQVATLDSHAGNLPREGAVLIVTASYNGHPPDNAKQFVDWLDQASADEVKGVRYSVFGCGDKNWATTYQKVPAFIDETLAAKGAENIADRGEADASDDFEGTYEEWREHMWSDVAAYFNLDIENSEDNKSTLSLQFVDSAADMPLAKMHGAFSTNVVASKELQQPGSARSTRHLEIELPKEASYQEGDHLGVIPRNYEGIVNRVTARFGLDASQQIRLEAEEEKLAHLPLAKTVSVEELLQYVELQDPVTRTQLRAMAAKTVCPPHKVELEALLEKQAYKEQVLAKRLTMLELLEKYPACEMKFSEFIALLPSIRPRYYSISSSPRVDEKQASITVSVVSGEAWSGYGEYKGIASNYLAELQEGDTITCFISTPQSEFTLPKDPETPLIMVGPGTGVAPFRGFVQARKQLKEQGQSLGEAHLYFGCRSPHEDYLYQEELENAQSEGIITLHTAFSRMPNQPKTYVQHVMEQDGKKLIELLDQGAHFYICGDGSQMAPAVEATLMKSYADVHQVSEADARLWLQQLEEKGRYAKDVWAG
# Procedure: In the above reaction, in order to confirm that the activity of cytochrome P450 BM3 is maintained by substantial NADPH regeneration, and the hydroxylation reaction of omeprazole, which is one of the substrates, occurs, to 1 mL of a reaction solution containing 100 mM potassium phosphate buffer (pH 7.4), 0.8 mM manganese sulfate, 40 mM DL-isocitric acid, 0.5 mM NADP, and 2 mM omeprazole, CgIDH and cytochrome P450 BM3 were added so that the final concentrations were 10 nM and 500 nM, respectively, and AvIDH and cytochrome P450 BM3 were added so that the final concentrations were 5 nM and 500 nM, respectively, to prepare a reaction product.
# The reaction mixture was recovered by 90 uL each time, mixed with 90 uL of methanol to stop the reaction, and then HPLC analysis was performed. Specific HPLC performance conditions are as follows: • HPLC was performed using an Alliance HPLC system (Waters). • A SunFire 18C column was used as a column • The amount of sample loading was set to 20 uL. • As a HPLC mobile phase, 30% acetonitrile was flowed at a flow rate of 1 mL/min, and an eluate was measured with ultraviolet (UV) light at 302 nm. • Analysis was performed using an Empower 3 (Waters) program. […]
# [5] = test system: NADPH regeneration; assay: Kinetic constant analysis of purified recombinant protein; format: biochemical; settings: wild-type CgIDH and AvIDH parameters as control groups
# Procedure: The analysis of kinetic properties related to an enzyme activity of the recombinant protein, that is, a kinetic constant, was performed by the following procedure.
# The analysis of kinetic activity for each of the recombinant proteins purified in Example 2 was performed based on the method described in Chen, R. & Yang, H. Biochemistry and Biophysics, 383(2):238-245 (2000); and Watanabe, S. Microbiology 151(4):1083-1094 (2005).
# Here, a Km (uM) value representing the affinity of the enzyme to the substrate as a reaction constant used in enzyme kinetics, a Kcat(S-1) value, which means the metabolic turnover number of the enzyme, and a Kcat/Km (S-1, M-1) value representing a reaction efficiency of the enzyme, were determined.
# [6] = Storage stability of recombinant protein; format: physicochemical; settings: storage at 4° C. for 30 days; 5 nM enzyme
# Procedure: In order to evaluate the stability of the recombinant protein produced in the present invention, after a certain period of time, each of the recombinant proteins stored at 4° C. was added to a reaction solution containing 100 mM potassium phosphate buffer (pH 7.4), 0.8 mM manganese sulfate, 40 mM DL-isocitric acid, and 0.5 mM NADP+ so that the final concentration was 5 nM, the reaction was proceeded as described in Example 5, and the degree of increase of NADPH was measured.
Molecule,reduction of enzyme activity [1] [%],reduction of enzyme activity [2] [%],enzyme activity (enzyme reaction slope) compared with AvIDH at the same amount of protein [3],specific activity [3] [U/mg],elution amount of 5′-hydroxyomeprazole based on the elution amount produced in the control group [4] [%],Kcat compared with the wild-types [5],enzyme activity after storage [6]
O=C(O)CCC(=O)C(=O)O [α-ketoglutarate],30,30,–,–,–,–,–
B1,–,–,higher enzyme activity,57,126,slight decrease,did not decrease
B2,–,–,–,28,114,slight decrease,did not decrease
